Data on 1 compound can be found in patent US20200129630A1, “METHODS FOR TREATING CANCER” (BicycleRD Limited, priority 2018, published 2020).

Where two headings read alike, the source gives them in different places. Numbered stars: 1 amine (or outer) side, 2 acyl side, 3 side chain; on linkers, the order of the positions; unused ones are H or OH. Bridge positions count the residues as written; N and C are the ends. Square brackets hold non-standard residues; d marks the D form. Peptide text beside a SMILES is read from it. * marks the point of attachment. X1 = COc1cc2cc(c1Cl)N(C)C(=O)C[C@H](OC(=O)[C@H](C)N(C)C(=O)CCSSC(C)CCC(=O)*)[C@]1(C)O[C@H]1[C@H](C)[C@@H]1C[C@@](O)(NC(=O)O1)[C@H](OC)/C=C/C=C(\C)C2; 1Nal = N[C@@H](Cc1cccc2ccccc12)C(=O)O; TBMB = c1c(C[*:1])cc(C[*:3])cc1C[*:2]; Tle = CC(C)(C)[C@H](N)C(=O)O; βAla = NCCC(=O)O; Sar = CNCC(=O)O Bounds are passed on as bounds.

One may read the IC50 as the concentration needed to halve the response being measured. What is called half-life is the time in which the quantity being followed falls by half.

In one series the test system is HT-29. Briefly: In vitro cytotoxicity (CellTiter-Glo) HT-29. Type of series: cell-based. To be noted: HT-29, Colorectal. The source says:
(§1) Table 1 and Table 2 Notes: in general regression and stable disease correlated with the in vitro cytotoxicity and MT1-MMP expression. Female BALB/c mice n=3/group animals dosed twice per week except EBC-1 three per week. Tumor growth inhibition (TGI) (%)=[1−(Ti−T0)/(Vi−V0)]×100; Ti is the average tumor volume of a treatment group on a given day, TO is the average tumor volume of the treatment group on the day of treatment start, Vi is the average tumor volume of vehicle control group on the same day with Ti, and V0 is the average tumor volume of vehicle group on the day of treatment start. A one-way ANOVA was performed to compare tumor volume among groups, and when a significant F-statistics (a ratio of treatment variance to the error variance) was obtained, comparisons between groups were carried out with Games-Howell test. All data were analyzed using GraphPad Prism.* p<0.05, ** p<0.01, *** p<0.001. In vitro cytotoxicity was measured by CellTiter-Glo®, MT1-MMP membrane H score from immunohistochemistry staining, NM not measured. Tumor size on Day 1 of dosing.
In general terms: Cellular ATP, detected with luciferase, serves as a proxy for viable cell number.

The nature of series [1]: Plasma protein binding, human. Format: in vitro ADME. The protocol: Plasma protein binding of BT1718 was also assessed. The mean plasma protein binding of the BT1718 peptide ranged from 87% to 98%, with the free fraction of BT1718 being 13% in human, 2.6% in rats, 7.5% in mice, 3.8% in monkey and 1.5% in dog plasma, the results had no correlation to the plasma and whole blood stability data. […] Plasma protein binding of unconjugated DM1, has previously been reported, with the unbound fraction being 7% in human and monkey and 3% in rat.

Series [2] is described as follows: Stability in plasma in vitro, rat. Type of series: in vitro ADME. The note with it: 37° C. The protocol: (§2) The stability of BT1718 was assessed in plasma and whole blood from humans, monkey, dog, mouse and rat. […] The mechanism for the difference in stability of the BT1718 peptide in whole blood between the different species is unknown.
A short description of series [3]: Total DM1 in plasma and urine / excretion (preclinical). Format: in vivo. The method, then: Efficacy in this model was reduced in the conjugates containing the least cleavable linkers. […] Effective treatment was also seen with same total dose, given at on schedules from daily to a single weekly dose.
The concentration of total DM1 in plasma and urine was also measured following a reduction step, to detect DM1 in BT1718, any peptidyl-DM1 metabolites of BT1718, other DM1-containing mixed disulfides and free DM1. The level of total DM1 in plasma and urine increased with increasing dose, with about 85% of the total DM1 recovered in urine within 48 hours of BT1718 administration. […] An assay for free DM1 has not been successfully developed due to the instability of the free thiol in biological matrices.

Series [4] in a line: Non-GLP toxicity studies, rat. Format: in vivo. The method, then:
In a GLP-compliant study in Cynomolgus monkeys, the highest non-severely toxic dose (HNSTD) of BT1718 was established to be 18 mg/m^2 administered twice weekly, equivalent to a human dose of 0.48 mg/kg. In a GLP-compliant study in the rat, the MTD was not reached with the highest administered dose 6 mg/m^2 twice weekly. At this dose level, there was kidney toxicity (with no effect on clinical condition) and also testicular toxicity. After 28 days off-dose, there was evidence of partial recovery of kidney-related findings, but no recovery of testicular effects at this dose level. […] Therefore, the MTD for rat for twice weekly dosing was considered to be between 1 and 1.5 mg/kg.

A short description of series [5]: Stability in whole blood in vitro, rat. The note with it: 37° C. Format: in vitro ADME. The protocol: as §2
The test system of another series is HT-1080. Briefly: In vitro cytotoxicity (CellTiter-Glo) HT-1080. Format: cell-based. To be noted: HT-1080, Fibrosarcoma.
Text: as §1

A short description of series [6]: Non-GLP toxicity studies, mouse. Format: in vivo.
Text: These include in vitro tissue microarray in human, rat and monkey tissues and in vitro and in vivo assessment of immunogenicity. In vivo assessments include single dose toxicity in mice and rats, multiple dose range finding studies in mice, rats, dogs and monkeys (non-GLP) and GLP-compliant multiple dose studies in rats and monkeys consisting of 28-day on study phase with a 28-day recovery period.
The subject of a further series is MDA-MB-231. Briefly: In vitro cytotoxicity (CellTiter-Glo) MDA-MB-231. Format: cell-based. To be noted: MDA-MB-231, Breast.
Text: as §1

Series [7] can be described thus: ECG, respiratory plethysmography and blood pressure (GLP safety pharmacology). Format: in vivo. To be noted: monkeys 0.2, 0.5, 1 and 1.5 mg/kg twice weekly. The protocol: As part of the Good Laboratory Practice (GLP)-compliant toxicity studies, a core battery of safety pharmacology tests were performed. […] Electrocardiogram (ECG) and respiratory plethysmography measurements were taken in monkeys dosed at 0.2, 0.5, 1 and 1.5 mg/kg (2.4, 6, 12 and 18 mg/m^2 respectively) twice weekly on Day 4, Day 22 (following 2nd and 7th dose) and in the recovery period (for animals dosed with 0, 6 and 12 mg/m^2 twice weekly). Blood pressure (BP) measurements were also evaluated in the same monkeys on Day 1 and Day 25 and in the recovery period. […] It is therefore concluded that BT1718 has no cardiac, respiratory or behavioral liability at the doses and schedule tested in the GLP toxicity studies.

As for `COc1cc2cc(c1Cl)N(C)C(=O)C[C@H](OC(=O)[C@H](C)N(C)C(=O)CCSSC(C)CCC(=O)NCCC(=O)N(C)CC(=O)N(C)CC(=O)N(C)CC(=O)N(C)CC(=O)N(C)CC(=O)N(C)CC(=O)N(C)CC(=O)N(C)CC(=O)N(C)CC(=O)N(C)CC(=O)N[C@@H](C)C(=O)N[C@H]1CSCc3cc4cc(c3)CSC[C@H](NC(=O)[C@@H](C)NC(=O)[C@H](Cc3cccc5ccccc35)NC(=O)[C@H](CCC(=O)O)NC(=O)[C@H](CC(N)=O)NC(=O)[C@@H](C)NC1=O)C(=O)N[C@@H](CCC(=O)O)C(=O)N[C@@H](CC(=O)O)C(=O)N[C@@H](Cc1ccccc1)C(=O)N[C@@H](Cc1ccc(O)cc1)C(=O)N[C@@H](CC(=O)O)C(=O)N[C@@H](C(C)(C)C)C(=O)N[C@H](C(N)=O)CSC4)[C@]1(C)O[C@H]1[C@H](C)[C@@H]1C[C@@](O)(NC(=O)O1)[C@H](OC)/C=C/C=C(\C)C2` (stereo partly drawn) [BT1718] ({X1-βAla}-[Sar][Sar][Sar][Sar][Sar][Sar][Sar][Sar][Sar][Sar]AC[dA]NE[1Nal][dA]CEDFYD[Tle]C-NH2; linker 12-18-25 via TBMB (inferred)), the values for the IC50 with HT-29, in the series on HT-1080 and in the series on MDA-MB-231 were 13 nM, 4.3 nM and 39.8 nM, respectively. Moreover, the fraction unbound in series [1] (human plasma, read-out: free fraction) is 0.13; in [1] (range across human, rat, mouse, monkey and dog plasma, read-out: mean plasma protein binding), 0.02 to 0.13. In addition, the values for the half-life in [2] and in series [5] were > 6 h and > 24 h, respectively. In addition, the route of excretion entry in [3] (preliminary metabolism studies) is listed as “excreted mainly through the kidney in urine”. Further, the “total DM1 recovered in urine” value in series [3] (within 48 hours of BT1718 administration) is listed as “about 85%”. In addition, in [4] (non-GLP rat, 9 mg/m^2 twice weekly), the tolerability entry is listed as “not well tolerated”. Also, the GI findings entry in [4] (rat 5.03 mg/kg (30.2 mg/m^2) twice) is recorded as “Single cell necrosis of the ileum”; in [6] (mice, single dose of 13.4 mg/kg (40.2 mg/m^2)), “intestinal mucosal mitosis”. For the same compound, the bladder findings result in series [4] (rat, single administration of 40 mg/m^2) was “Bladder epithelial degeneration”. For the same compound, the peripheral haematology entry in series [4] (rats 1.5 mg/kg, 9 mg/m^2 twice weekly) is given as “significant decreases in WBCs”. Also, the hepatic findings entry in [4] (rats 3.35 mg/kg, 20.1 mg/m^2 twice weekly) is reported as “Elevated liver enzymes”. For the same compound, the renal findings result in [4] (rats >1 mg/kg, 6 mg/m^2 twice weekly) is “Moderate renal tubule degeneration and epithelial mitosis”; in series [6] (mouse 3.3 mg/kg, 10 mg/m^2 three times weekly), “Moderate renal tubule degeneration and epithelial mitosis”. Besides, the “ECG, respiratory plethysmography, blood pressure findings” value in [7] is given as “no BT1718 related findings”.
